In paper PMC3093367:
Where “and” joins values, the source holds several entries; their conditions need not be identical. Identical values can stand only once.

T1: RVFV nucleoprotein N (SEC fraction N2) (Rift Valley fever virus (strain …, UniProt D3K5I7 1-245))
T1 sequence: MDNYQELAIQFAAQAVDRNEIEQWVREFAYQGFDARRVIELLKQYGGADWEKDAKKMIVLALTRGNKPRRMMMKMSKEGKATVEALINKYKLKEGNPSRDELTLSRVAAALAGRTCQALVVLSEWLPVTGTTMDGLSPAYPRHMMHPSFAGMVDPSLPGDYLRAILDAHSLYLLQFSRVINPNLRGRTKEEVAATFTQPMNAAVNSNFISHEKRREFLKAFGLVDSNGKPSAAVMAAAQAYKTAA

B1: RNA20-3'biotin (ssRNA)
RNA: GAGUUGUUAAUCUUUUUUUU

Legend:
[1] = biological target: Rift Valley fever virus nucleoprotein (N), recombinant wild type (Rift Valley fever virus (strain Smithburn)) (UniProt P21700); test: cross-linking
[2] = biological target: Rift Valley fever virus nucleoprotein (N), recombinant wild type (Rift Valley fever virus (strain Smithburn)) (UniProt P21700); test: crystal structure
[3] = biological target: T1, RVFV nucleoprotein N (SEC fraction N2); test: SPR; RNA immobilized via biotin-NeutrAvidin; SPR (ProteOn XPR36, […]; temperature not stated; conditions: protein: recombinant; tags: N-terminal thioredoxin-His6 tag removed by TEV; label: 3' biotin; single strand

| Molecule | stoichiometry N [1] | stoichiometry N [2] | Kd [3] |
| --- | --- | --- | --- |
| Rift Valley fever virus nucleoprotein (N), recombinant wild type (from UniProt P21700 1-245) (natural protein) | 2 and 3 and 4 | 6 |  |
| B1 |  |  | 3.8 µM |
